Source: US20220177587A1, “METHODS AND USES OF VARIANT CD80 FUSION PROTEINS AND RELATED CONSTRUCTS” (Alpine Immune Sciences, Inc., priority 2018, published 2022)
Where a chain is given by its changes, count along the chain named. In names and notes the source's numbering stands.

B1: M47L (protein)
chain: VIHVTKEVKEVATLSCGHNVSVEELAQTRIYWQKEKKMVLTMMSGDLNIWPEYKNRTIFDITNNLSIVILALRPSDEGTYECVVLKYEKDAFKREHLAEVTLSVKAD
B2: D46V/V68M (protein)
chain: B1 chain with D46V, L47M, V68M
B3: D46V/L85Q (protein)
chain: B1 chain with D46V, L47M, L85Q
B4: E35D/M47L/V68M (protein)
chain: B1 chain with E35D, V68M
B5: E35D/V68M/L85Q (protein)
chain: B1 chain with E35D, L47M, V68M, L85Q
B6: D46V/M47L/V68M (protein)
chain: B1 chain with D46V, V68M
B7: D46V/M47L/L85Q (protein)
chain: B1 chain with D46V, L85Q
B8: E35D/D46V/M47L/L85Q (protein)
chain: B1 chain with E35D, D46V, L85Q
B9: E35D/D46V/M47L/V68M/L85Q (protein)
chain: B1 chain with E35D, D46V, V68M, L85Q
B10: M47V (protein)
chain: B1 chain with L47V
B11: K89N (protein)
chain: B1 chain with L47M, K89N
B12: E35D/N48K (protein)
chain: B1 chain with E35D, L47M, N48K
B13: E35D/K89N (protein)
chain: B1 chain with E35D, L47M, K89N
B14: M47V/V68M (protein)
chain: B1 chain with L47V, V68M
B15: E35D/N48K/K89N (protein)
chain: B1 chain with E35D, L47M, N48K, K89N
B16: M47V/N48K/V68M (protein)
chain: B1 chain with L47V, N48K, V68M

Tests used:
CD28 [1] = biological target: T1, CD28 (Homo sapiens, UniProt P10747); experiment: Flow binding to Jurkat/IL2 reporter cells (CD28); design: host or cells: Jurkat cells expressing an IL-2-luciferase reporter; conditions: Table E19; for CD28 MFI at 33.3 nM: Jurkats (CD28); for CD28 Fold change to WT CD80: MFI at 33.3 nM relative to WT CD80 ECD-Fc (Abcam)
Outline: (§1)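 Flow cytometry on transfected CHO cells or CD28+ Jurkat/IL2 reporter cells, blocked 20 min in PBS/1% BSA/0.1% azide. Fusion protein 45 min on ice; PE anti-human Fc 1:150, 30 min on ice; fixed in 2% formaldehyde. Read-out PE MFI, EC50 calculated.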

CD28 [2] = biological target: T1, CD28; experiment: Jurkat/IL2 + CHO/OKT3 +/- PD-L1 reporter assay: PD-L1-dependent CD28 costimulation; type: cell-based; design: host or cells: Jurkat cells expressing an IL-2-luciferase reporter; conditions: Table E21, Jurkat/IL2 + CHO/OKT3/PD-L1; for Fold Increase over WT CD80-IgV-Fe: 5.0 nM
Outline: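 Jurkat reporter cells (100,000/well) preincubated 15 min at room temperature with test protein, then cocultured 5 h at 37 °C with CHO aAPCs bearing anti-CD3 scFv (OKT3) with or without PD-L1. Luciferase luminescence (RLU) read after lysis-substrate addition.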

huCTLA4 = huCTLA4 (Homo sapiens, UniProt P16410); experiment: Flow binding to CHO cells stably expressing CTLA4; design: huCTLA4 and huPD-L1, full-length mammalian surface expression constructs were generated; expressed in transfected cells; host or cells: CHO cells, lentiviral transduction, sorted to >98% purity; conditions: Table E19; for CTLA4 MFI at 33.3 nM: CHO cells stably expressing CTLA4; for CTLA4 Fold change to WT CD80: MFI at 33.3 nM relative to WT CD80 ECD-Fc (Abcam)
Outline: as §1

huPD-L1 = huPD-L1 (Homo sapiens, UniProt Q9NZQ7); experiment: Flow binding to CHO cells stably expressing PD-L1; design: huCTLA4 and huPD-L1, full-length mammalian surface expression constructs were generated; expressed in transfected cells; host or cells: CHO cells, lentiviral transduction, sorted to >98% purity; conditions: Table E19; for PD-L1 MFI at 33.3 nM: CHO cells stably expressing PD-L1; for PD-L1 Fold change to WT CD80: MFI at 33.3 nM relative to WT CD80 ECD-Fc (Abcam); for Ratio of PDL1:CD28: ratio of MFI at 33.3 nM
Outline: as §1

Sequence of huCTLA4 (P16410 36-223): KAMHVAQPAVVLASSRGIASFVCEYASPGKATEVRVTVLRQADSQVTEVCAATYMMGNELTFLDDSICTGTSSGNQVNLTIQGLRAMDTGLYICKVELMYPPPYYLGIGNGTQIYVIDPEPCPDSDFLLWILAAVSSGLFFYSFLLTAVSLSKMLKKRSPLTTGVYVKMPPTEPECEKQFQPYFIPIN
Sequence of huPD-L1 (Q9NZQ7 19-290): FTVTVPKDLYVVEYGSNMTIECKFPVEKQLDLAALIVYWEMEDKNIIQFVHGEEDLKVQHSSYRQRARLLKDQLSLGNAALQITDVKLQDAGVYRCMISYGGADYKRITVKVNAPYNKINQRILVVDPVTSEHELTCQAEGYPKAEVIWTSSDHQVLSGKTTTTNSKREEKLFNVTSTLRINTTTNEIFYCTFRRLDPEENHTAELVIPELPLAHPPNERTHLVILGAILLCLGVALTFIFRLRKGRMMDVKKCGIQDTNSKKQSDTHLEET

| Molecule | CD28 MFI at 33.3 nM (CD28 [1]) | CD28 Fold change to WT CD80 (CD28 [1]) | Fold Increase over WT CD80-IgV-Fe (CD28 [2]) | Relative Luciferase Units (RLU), CD80 Conc 5.0 nM (CD28 [2]) | CTLA4 MFI at 33.3 nM (huCTLA4) | CTLA4 Fold change to WT CD80 (huCTLA4) | PD-L1 MFI at 33.3 nM (huPD-L1) | PD-L1 Fold change to WT CD80 (huPD-L1) | Ratio of PDL1:CD28 (huPD-L1) |
| --- | --- | --- | --- | --- | --- | --- | --- | --- | --- |
| B1 | 309 | 0.4 fold | 4.6 fold | 530 RLU | 30774 | 0.8 fold | 1895 | 14.8 fold | 6.1 |
| B2 | 556 | 0.8 fold | 2.5 fold | 292 RLU | 5334 | 0.1 fold | 2271 | 17.7 fold | 4.1 |
| B3 | 131 | 0.2 fold | 3.0 fold | 342 RLU | 41896 | 1.0 fold | 2197 | 17.2 fold | 16.8 |
| B4 | 1243 | 1.8 fold | 6.5 fold | 749 RLU | 28603 | 0.7 fold | 27896 | 217.9 fold | 22.4 |
| B5 | 76.2 | 0.1 fold | 4.4 fold | 511 RLU | 42761 | 1.1 fold | 5971 | 46.6 fold | 78.4 |
| B6 | 2183 | 3.1 fold | 6.3 fold | 724 RLU | 34688 | 0.9 fold | 28020 | 218.9 fold | 12.8 |
| B7 | 567 | 0.8 fold | 5.2 fold | 598 RLU | 40153 | 1.0 fold | 5976 | 46.7 fold | 10.5 |
| B8 | 268 | 0.4 fold | 4.2 fold | 481 RLU | 38150 | 0.9 fold | 7523 | 58.8 fold | 28.1 |
| B9 | 464 | 0.7 fold | 6.2 fold | 712 RLU | 26207 | 0.6 fold | 28418 | 222.0 fold | 61.2 |
| B10 | 68.7 | 0.1 fold | 3.9 fold | 445 RLU | 33341 | 0.8 fold | 2317 | 18.1 fold | 33.7 |
| B11 | 56.3 | 0.1 fold | 1.0 fold | 116 RLU | 944 | 0.0 fold | 52.8 | 0.4 fold | 0.9 |
| B12 | 194 | 0.3 fold | 5.1 fold | 590 RLU | 41325 | 1.0 fold | 6545 | 51.1 fold | 33.7 |
| B13 | 236 | 0.3 fold | 2.5 fold | 293 RLU | 21755 | 0.5 fold | 757 | 5.9 fold | 3.2 |
| B14 | 328 | 0.5 fold | 4.8 fold | 553 RLU | 7282 | 0.2 fold | 4294 | 33.5 fold | 13.1 |
| B15 | 411 | 0.6 fold | 6.3 fold | 719 RLU | 34727 | 0.9 fold | 5766 | 45.0 fold | 14.0 |
| B16 | 641 | 0.9 fold | 5.8 fold | 664 RLU | 34612 | 0.9 fold | 14464 | 113.0 fold | 22.6 |
